Values quoted from earlier work as cited in publication PMC9980337.
Several values for one entry are separate records, joined by “and”; a condition that tells them apart may be missing. Equal entries are not always repeated.

Target: IL-18 (Homo sapiens) (UniProt Q14116)
Sequence (Q14116 37-193): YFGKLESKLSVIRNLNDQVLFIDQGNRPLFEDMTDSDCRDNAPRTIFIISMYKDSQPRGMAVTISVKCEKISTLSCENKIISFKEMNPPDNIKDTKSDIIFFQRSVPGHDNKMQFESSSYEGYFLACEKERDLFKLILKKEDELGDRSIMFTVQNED

IL-18BP, sequence (O95998 31-194): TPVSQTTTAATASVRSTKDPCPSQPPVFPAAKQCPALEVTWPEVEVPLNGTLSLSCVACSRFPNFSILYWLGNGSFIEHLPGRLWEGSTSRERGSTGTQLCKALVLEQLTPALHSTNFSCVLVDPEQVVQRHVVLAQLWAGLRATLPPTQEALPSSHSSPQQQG

IL-18BP (from UniProt O95998)
Kd: 0.4 nM and 0.05 nM
